The values that follow come from US20120271036A1 (UNIVERSITY OF ROCHESTER, published 2012).

As a reminder, the Kd is the free concentration of one partner at which half of the binding sites on the other are occupied at equilibrium, for simple one-to-one binding. Low values mean higher affinity, high ones lower affinity.

First the molecules themselves.
B2: BC: EloB (1-118) / EloC (17-112) heterodimer (other)
chain 1: MGDVFLMIRRHKTTIFTDAKESSTVFELKRIVEGILKRPPDEQRLYKDDQLLDDGKTLGECGFTSQTARPQAPATVGLAFRADDTFEALCIEPFSSPPELPDVMKPQDSGSSANEQAVQENLYFQ
chain 2: MGYVKLISSDGHEFIVKREHALTSGTIKAMLSGPGQFAENETNEVNFREIPSHVLSKVCMYFTYKVRYTNSSTEIPEFPIAPEIALELLMAANFLDC
notes: also called EloBC; EloBC heterodimer

In data set [1] the target is T1, BCvif95-155: EloB (1-118) / EloC (17-112) / Vif (95-155) (human; HIV-1 HXB2, UniProt P69723 95-155).
T1 construct: range 95-155
As to the kind of experiment: ITC, 30 C. (In general: In ITC the heat of successive injections is recorded.)

In data set [2] the target is T2, EloB(1-104)/EloC(17-112)/Vif(102-173) (human; HIV-1 (group M, subtype B), UniProt Q15370 2-104; Q15369 18-112; P31820 102-173). As to the kind of experiment: ITC, 30 C.
Data set [3] deals with T3, EloB(1-118)/EloC(17-112)/Vif(95-173) (human; HIV-1 (group M, subtype B), UniProt Q15370 2-118; Q15369 18-112; P31820 95-173). As to the kind of experiment: ITC, 30 C.
Data set [4] deals with T4, BCvif95-160: EloB (1-118) / EloC (17-112) / Vif (95-160) (human; HIV-1 HXB2, UniProt P69723 95-160).
T4 construct: range 95-160
As to the kind of experiment: ITC, 30 C.

In data set [5] the target is T5, BCvif95-192: EloB (1-118) / EloC (17-112) / Vif (95-192) (human; HIV-1 HXB2, UniProt P69723 95-192).
Data set [6] addresses B2.
For data set [7], the target named is T2, EloB(1-104)/EloC(17-112)/Vif(102-173).
Data set [8] deals with T3, EloB(1-118)/EloC(17-112)/Vif(95-173).
Data set [9] has as its target T4, BCvif95-160: EloB (1-118) / EloC ….
The target of data set [10] is T6, BCvifVF: EloB (1-118) / EloC (17-112) / vif (95-192) (A123V, L124F) (human; HIV-1 HXB2, UniProt P69723 95-192).
Data set [11] concerns the target T7, BCvifSS: EloB (1-118) / EloC (17-112) / vif (95-192) (A123S, L124S) (human; HIV-1 HXB2, UniProt P69723 95-192).
For data set [12], the target named is T7, BCvifSS: EloB (1-118) / EloC (17-112) / …. As to the kind of experiment: ITC, 30 C; A123S/L124S mutant.
The target in data set [13] is T6, BCvifVF: EloB (1-118) / EloC (17-112) / …. As to the kind of experiment: ITC, 30 C; A123V/L124F mutant.
The target of data set [14] is T5, BCvif95-192: EloB (1-118) / EloC …. As to the kind of experiment: ITC, 30 C; Cul5(N) titrated into the complex.
Data set [15] has as its target B2. As to the kind of experiment: ITC, 30 C; untagged Cul5(N) titrated into EloBC.
In data set [16] the target is T5, BCvif95-192: EloB (1-118) / EloC …. As to the kind of experiment: ITC, opposite injection order; BCvif95-192 titrated into Cul5(N).
Data set [17] deals with the molecule itself. As to the kind of experiment: sedimentation velocity AUC; self-association.

B1: Cul5(N), human Cullin5 residues 2-384 (V341R, L345D) after removal of GST (other)
chain: GPMHMGGSTSNLLKNKGSLQFEDKWDFMRPIVLKLLRQESVTKQQWFDLFSDVHAVCLWDDKGPAKIHQALKEDILEFIKQAQARVLSHQDDTALLKAYIVEWRKFFTQCDILPKPFCQLEITLMGKQGSNKKSNVEDSIVRKLMLDTWNESIFSNIKNRLQDSAMKLVHAERLGEAFDSQLVIGVRESYVNLCSNPEDKLQIYRDNFEKAYLDSTERFYRTQAPSYLQQNGVQNYMKYADAKLKEEEKRALRYLETRRECNSVEALMECCVNALVTSFKETILAECQGMIKRNETEKLHLMFSLMDKVPNGIEPMLKDLEEHIISAGLADMVAAAETITTDSEKYREQLDTLFNRFSKLVKEAFQDDPRFLTARDKAYKAVVNDATIFK
notes: also called untagged Cul5(N)
On to B1, for which the Kd in [1] amounted to 0.213 µM; in [2] it was 0.288 µM; in data set [3], 0.337 µM; in data set [4] it was 0.285 µM; in data set [12] it was 0.397 µM; in data set [13], 0.847 µM. In addition, the Kd in [14] stood at 0.327 µM; in data set [15] it was 6.35 µM; in [16] it was 0.42 µM. For the same molecule, the ΔH is -5210 in data set [5]; -9200 in [6]; -4950 in [7]; -5630 in data set [8]; -5090 in [9]; -4550 in [10]. In data set [11], this molecule showed a ΔH of -7380. The ΔS in data set [5] was 12.6; in data set [6], -6.39; in [7], 13.6; in data set [8] it was 11.1; in data set [9], 13; in data set [10] it was 13.1. Also, in data set [11], the ΔS stood at 4.97. For the same molecule, the N in data set [6] is 0.924; in data set [7], 0.826; in [8], 0.869.
As for B2, in [17], the binding result is “no binding (tested: 0.19, 0.37, and 1.88 mg ml^-1)”.
